Results as given in patent US20250326838A1 (CSPC MEGALITH BIOPHARMACEUTICAL, published 2025).

B1: 5G12-IgG1 control antibody (antibody, V domains shown)
VH: QVQLQQPGAELVKPGASVKMSCKASGYTFTSYWITWVIQRPGQGLEWIGDIYCGSDTMHYNEKFKNKATLTVDTSSSTAYMQLSSLTSEDSAVYYCARWWDYGSSYDYFDYWGQGTTLTVSS
VL: DIKMTQSPSSMYASLGERVTITCKASQDINSYLSWFQQKPGKSPKTLIYRANRLVDGVPSRFSGSGSGQDYSLTISSLEYEDMGIYYCLQYDEFPYTFGGGTKLEIKR
B2: 1-10E5 monoclonal antibody (antibody, V domains shown)
VH: DVKLVESGGGLVKPGGSLKLSCVVSGLTFSRYTMSWVRQTPEKRLEWVATISSGGNSTYYPDSVKGRFTISRDDAKDTLYLQMSSLKSEDTAMYYCTNYGYFFDYWGQGTTLTVSS
VL: DIQMTQSPASLSASVGETVTITCRASENIYSFLAWYQQKQGKSPQLLVYNAKTLAEGVPSRFSGSGSGTQFSLKINSLQPEDFGSYYCQHHYDRPLTFGAGTKLELK
B3: 1-10E5-IgG1 human-mouse chimeric anti-Siglec15 antibody (antibody, V domains shown)
VH: DVKLVESGGGLVKPGGSLKLSCVVSGLTFSRYTMSWVRQTPEKRLEWVATISSGGNSTYYPDSVKGRFTISRDDAKDTLYLQMSSLKSEDTAMYYCTNYGYFFDYWGQGTTLTVSS
VL: DIQMTQSPASLSASVGETVTITCRASENIYSFLAWYQQKQGKSPQLLVYNAKTLAEGVPSRFSGSGSGTQFSLKINSLQPEDFGSYYCQHHYDRPLTFGAGTKLELK
B4: 14A7 monoclonal antibody (antibody, V domains shown)
VH: DVQLQESGPGLVKPSQSLSLTCTVTGYSITSDFAWNWIRQFPGNKLEWMGYIRFSGSTTYKPTLKSRISITRDTSKNQFFLQLNSVTTEDSATYYCAREDYDGLFDYWGQGTTLTVTS
VL: DVLMTQTPLSLPVSLGDHASISCRSSQTILHSNGNTYLDWYLQKPGQSPKLLIYKVSNRFSGVPDRFSGSGSGTDFTLKISRVEAEDLGVYYCFQGSHVPYTFGGGTKLEIK
B5: 1-7F4 monoclonal antibody (antibody, V domains shown)
VH: EVQLQQSGPELVKPGASVKMSCKASGYTFTTYVMHWVKQKPGQGLEWIGYINPYNDKTKYNEKFKGKATLTSDKSSSTAYMEVSRLTSEDSAVYYCGSGYDAMDYWGQGTSVTVSS
VL: DIQMTQSPASLSVSVGETVTITCRASENIYSHLAWYQQKQGKSPQLLIYSATNLADGVPSRFNGSGSGTQYSLKINSLQSEDFGSYYCQHFWGTPWTFGGGTKLEIK
B6: 1-7F4-IgG1 human-mouse chimeric anti-Siglec15 antibody (antibody, V domains shown)
VH: EVQLQQSGPELVKPGASVKMSCKASGYTFTTYVMHWVKQKPGQGLEWIGYINPYNDKTKYNEKFKGKATLTSDKSSSTAYMEVSRLTSEDSAVYYCGSGYDAMDYWGQGTSVTVSS
VL: DIQMTQSPASLSVSVGETVTITCRASENIYSHLAWYQQKQGKSPQLLIYSATNLADGVPSRFNGSGSGTQYSLKINSLQSEDFGSYYCQHFWGTPWTFGGGTKLEIK
B7: 1-15D1 monoclonal antibody (antibody, V domains shown)
VH: EVQLQQSGPELVKPGASVKMSCKASGYTFTTYVMHWVKQKPGQGLEWIGYINPYNDNTKYNEKFKGKATLTSDKSSSTAYMELSSLTSEDSAVYYCGSGYDAMDYWGQGTSVTVSS
VL: DIQMAQSPASLSVSVGETVTITCRTSENIYSHLAWYQQKQGKSPQLLVYSATNLADGVPSRFNGSGSGTQYSLKINSLQSEDFGSYYCQHFWGTPWTFGGGTKLEIK
B8: 1-15D1-IgG1 human-mouse chimeric anti-Siglec15 antibody (antibody, V domains shown)
VH: EVQLQQSGPELVKPGASVKMSCKASGYTFTTYVMHWVKQKPGQGLEWIGYINPYNDNTKYNEKFKGKATLTSDKSSSTAYMELSSLTSEDSAVYYCGSGYDAMDYWGQGTSVTVSS
VL: DIQMAQSPASLSVSVGETVTITCRTSENIYSHLAWYQQKQGKSPQLLVYSATNLADGVPSRFNGSGSGTQYSLKINSLQSEDFGSYYCQHFWGTPWTFGGGTKLEIK

Experiments:
Siglec15-ECD-His [1] = target: T1, Siglec15-ECD-His (human, UniProt Q6ZMC9 20-263); assay: BLI (ForteBio), Siglec15-ECD-His on HIS1K sensor, antibody as analyte
T1 construct: Human Siglec15 (Uniprot Q6ZMC9) extracellular domain with 7 His, expressed in Hek293F; also called Sigle15-ECD-His protein; Siglec15-His protein
T1 sequence: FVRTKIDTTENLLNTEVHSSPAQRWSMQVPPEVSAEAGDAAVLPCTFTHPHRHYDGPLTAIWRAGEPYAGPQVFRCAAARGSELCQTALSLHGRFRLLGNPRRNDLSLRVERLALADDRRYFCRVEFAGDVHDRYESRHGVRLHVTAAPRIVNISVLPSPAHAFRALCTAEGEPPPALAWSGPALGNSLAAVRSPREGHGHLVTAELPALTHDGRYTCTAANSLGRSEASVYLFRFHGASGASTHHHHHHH
Description: In this experiment, a HIS1K biosensor was used to bind the ligand (Sigle15-ECD-His protein) followed by the analyte. Human Sigle15-ECD-His protein was diluted to 5 μg/ml and immobilized on the biosensor to a binding response threshold of 0.3 nm. After the 120s baseline step, the sensors were respectively immersed in the analytes of anti-Siglec15 antibodies 1-7F4-IgG1, 1-15D1-IgG1 and 1-10E5-IgG1 diluted in 2-fold gradient dilution with 0.02% PBST buffer, and the initial antibody concentration was 100 nM, 7 concentration gradients were set respectively. Human IgG1 (hIgG1) (B109801, Baiying Biotechnology Co., Ltd.) was used as a reference control, and 5G12-IgG1 was used as a positive control to conduct an affinity analysis experiment. The binding time of ligand and analyte was 120s, and the dissociation time was 300s. The raw data were imported into the analysis software, the zero concentration control was subtracted, and the reference channel was subtracted to eliminate the volume effect. The affinity data of the antigen and antibody were calculated by the analysis software regression according to the binding curve.

Siglec15-ECD-His [2] = target: T1, Siglec15-ECD-His; assay: ELISA, His-tagged human Siglec15 coated
Description: (§1) In order to evaluate the cross-species recognition properties of antibodies, the cross recognition of purified 1-15D1, 1-7F4, 14A7 and 1-10E5 monoclonal antibodies with human, cynomolgus monkey and mouse Siglec15 was tested. ELISA test was carried out by coating the microtiter plate with His-tagged human, cynomolgus monkey and mouse Siglec15 proteins and adding 1-15D1, 1-7F4, 14A7 and 1-10E5 antibodies at concentrations of 5000 ng/ml, 1666.7 ng/ml, 555.6 ng/ml, 185.2 ng/ml, 61.7 ng/ml, 20.6 ng/ml, 6.9 ng/ml, 2.3 ng/ml, 0.8 ng/ml, 0.25 ng/ml and 0.1 ng/ml respectively. […] The 14A7 and 1-10E5 antibodies could not only bind human and monkey Siglec15 proteins, but also bind mouse Siglec 15 proteins (FIG. 5). See Table 1 and FIG. 3-FIG. 5 for the EC₅₀ values of affinities for various Siglec15.

Siglec15-ECD-Fc = target: T2, Siglec15-ECD-Fc (human); assay: flow cytometry, single-point blocking by hybridoma supernatant of Siglec15-ECD-Fc (2 ug/ml) binding to LRRC4C-Hek293 cells
T2 construct: Human Siglec15 extracellular domain fused to human IgG1 Fc, expressed in Hek293F; also called Siglec15-ECD-Fc fusion protein
Source text: When the hybridoma cells grew to a certain amount, the Siglec15-His protein was coated onto a 96-well microtiter plate, and the mouse anti-Siglec15 serum was used as a positive control, and the hybridoma supernatant was screened by ELISA to select positive clones. […] The experimental results were shown in FIG. 2, and the specific method was as follows. The inventors conducted subclonal screening of these 10 strains of cells by the limiting dilution method, and finally kept the obtained monoclonal positive cell strains separately, and the supernatant of hybridoma cells was collected for purification by ProteinG.
By using the Lipofectamine system, the human LRRC4C (amino acid sequence set forth in SEQ ID NO: 5) plasmid was transfected into Hek293 cells. After 48 hours, G418 (800 μg/mL) was added to screen for 10-14 days to obtain a cell line stably expressing LRRC4C. Cells were collected, washed once with PBS buffer, blocked with PBS containing 2% FBS for 1 h at room temperature. The hybridoma cell supernatant was added in 50 μl/well; then the diluted Siglec 15-ECD-Fc protein (2 ug/ml) was added in 50 μl/well; mouse IgG was used as a negative control. The cells were incubated at 4° C. for 50 min, then washed three times with PBS buffer containing 0.2% FBS, then diluted with Alexa Fluor 488-labeled goat anti-human IgG in PBS containing 2% FBS, and incubated at 4° C. in the dark for 50 min, and washed three times with PBS buffer containing 0.2% FBS; finally, the cells were resuspended in 200 μL PBS and analyzed by flow cytometry. The average fluorescence reading of 10,000 cells for each sample was recorded, wherein the FITC fluorescence intensity was taken as the abscissa and the cell number as the ordinate, and the voltage parameters were adjusted so that the blank control was at the origin of the coordinate axis. The percentage result of hybridoma cell supernatant for blocking the binding of Siglec15-ECD-Fc protein to LRRC4C was calculated.

[3] = target: T3, His-tagged cynomolgus monkey Siglec15 protein (cynomolgus monkey, UniProt A0A2K5UY47 20-262); assay: ELISA, His-tagged cynomolgus monkey Siglec15 coated
T3 construct: not shown: His tag
T3 sequence: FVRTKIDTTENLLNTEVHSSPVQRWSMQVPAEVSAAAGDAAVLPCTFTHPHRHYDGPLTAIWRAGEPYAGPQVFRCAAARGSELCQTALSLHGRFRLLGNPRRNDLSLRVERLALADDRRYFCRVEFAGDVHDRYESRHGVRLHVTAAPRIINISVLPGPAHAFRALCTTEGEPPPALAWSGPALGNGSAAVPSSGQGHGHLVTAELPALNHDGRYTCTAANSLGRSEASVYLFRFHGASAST
Description: as §1

[4] = target: His-tagged mouse Siglec15 protein (mouse); assay: ELISA, His-tagged mouse Siglec15 coated
Description: as §1

| Binder | Kd (Siglec15-ECD-His [1]) | koff (Siglec15-ECD-His [1]) | kon (Siglec15-ECD-His [1]) | EC50 (Siglec15-ECD-His [2]) | binding result (Siglec15-ECD-Fc) | EC50 [3] | EC50 [4] |
| --- | --- | --- | --- | --- | --- | --- | --- |
| B1 | 0.261 nM | 0.000178 s⁻¹ | 683000 M⁻¹ s⁻¹ | – | – | – | – |
| B2 | – | – | – | 7.21 ng/mL | binds | 9.49 ng/mL | 9.61 ng/mL |
| B3 | < 0.001 nM | < 1e-07 s⁻¹ | 1.04e+06 M⁻¹ s⁻¹ | – | – | – | – |
| B4 | – | – | – | 8.97 ng/mL | binds | 8.51 ng/mL | 9.99 ng/mL |
| B5 | – | – | – | 10 ng/mL | binds | 14.8 ng/mL | – |
| B6 | 0.06 nM | 3.42e-05 s⁻¹ | 570000 M⁻¹ s⁻¹ | – | – | – | – |
| B7 | – | – | – | 4.98 ng/mL | binds | 9.07 ng/mL | – |
| B8 | < 0.001 nM | < 1e-07 s⁻¹ | 436000 M⁻¹ s⁻¹ | – | – | – | – |
